The experiment concerns the target Circumsporozoite protein (CSP) (Plasmodium falciparum (isolate 3D7), UniProt Q7K740). In words: AVEXIS screen signal:noise (double-corrected).

No end group written: not given here.

Sequence of Circumsporozoite protein (CSP) (Q7K740 19-374): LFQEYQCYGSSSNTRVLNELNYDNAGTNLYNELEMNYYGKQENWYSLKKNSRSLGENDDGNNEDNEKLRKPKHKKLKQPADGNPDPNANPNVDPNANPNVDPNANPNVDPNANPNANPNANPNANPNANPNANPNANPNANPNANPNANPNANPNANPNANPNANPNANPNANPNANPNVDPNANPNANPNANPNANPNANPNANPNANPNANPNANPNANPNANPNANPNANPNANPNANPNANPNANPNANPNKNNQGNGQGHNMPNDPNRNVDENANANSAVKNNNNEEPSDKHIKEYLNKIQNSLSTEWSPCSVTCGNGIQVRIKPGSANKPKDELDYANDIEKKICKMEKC

B1: ADP279 (protein)
chain: RMAHKFITGKLVEDERSDREETESSEGEEAAAGGGAKSRPLANGHPILNNNHRKND
modifications: also: human Fc-tagged dimer
For the molecule B1, the binding score is 1.03.

B2: ADP352 (protein)
chain: MGHLSAPLHRVRVPWQGLLLTASLLTFWNPPTTAQLTTESMPFNVAEGKEVLLLVHNLPQQLFGYSWYKGERVDGNRQIVGYAIGTQQATPGPANSGRETIYPNASLLIQNVTQNDTGFYTLQVIKSDLVNEEATGQFHVYPELPKPSISSNNSNPVEDKDAVAFTCEPETQDTTYLWWINNQSLPVSPRLQLSNGNRTLTLLSVTRNDTGPYECEIQNPVSANRSDPVTLNVTYGPDTPTISPSDTYYRPGANLSLSCYAASNPPAQYSWLINGTFQQSTQELFIPNITVNNSGSYTCHANNSVTGCNRTTVKTIIVTELSPVVAKPQIKASKTTVTGDKDSVNLTCSTNDTGISIRWFFKNQSLPSSERMKLSQGNTTLSINPVKREDAGTYWCEVFNPISKNQSDPIMLNVNYNALPQENGLSPG
modifications: bait human Fc-tagged dimer
B2 yielded a binding score of 1.31.

B3: ADP341 (protein)
chain: MEAAVAAPRPRLLLLVLAAAAAAAAALLPGATALQCFCHLCTKDNFTCVTDGLCFVSVTETTDKVIHNSMCIAEIDLIPRDRPFVCAPSSKTGSVTTTYCCNQDHCNKIELPTTVKSSPGLGP
modifications: bait human Fc-tagged dimer
As to B3, the binding score was 1.43.

B4: ADP325 (protein)
chain: MAAAQEADGARSAVVAAGGGSSGQVTSNGSIGRDPPAETQPQNPPAQPAPNAWQVIKGVLFRIFIIWAISSWFRRGPAPQDQAGPGGAPRVASRNLFPKDTLMNLHVYISEHEHFTDFNATSALFWEQHDLVYGDWTSGENSDGCYEHFAELDIPQSVQQNGSIYIHVYFTKSGFHPDPRQKALYRRLATVHMSRMINKYKRRRFQKTKNLLTGETEADPEMIKRAEDYGPVEVISHWHPNITINIVDDHTPWVKGSVPPPLDQYVKFDAVSGDYYPIIYFNDYWNLQKDYYPINESLASLPLRVSFCPLSLWRWQLYAAQSTKSPWNFLGDELYEQSDEEQDSVKVALLETNP
modifications: bait human Fc-tagged dimer
In the case of B4, the binding score turned out to be 1.73.

B5: ADP146 (protein)
chain: MVAWRSAFLVCLAFSLATLVQRGSGDFDDFNLEDAVKETSSVKQPWDHTTTTTTNRPGTTRAPAKPPGSGLDLADALDDQDDGRRKPGIGGRERWNHVTTTTKRPVTTRAPANTLGNDFDLADALDDRNDRDDGRRKPIAGGGGFSDKDLEDIVGGGEYKPDKGKGDGRYGSNDDPGSGMVAEP
modifications: bait human Fc-tagged dimer
Consider B5, for which the binding score turned out to be 1.36.

B6: ADP138 (protein)
chain: MAGKSSTRAVLLLLGIQLTALWPIAAVEIYTSRVLEAVNGTDARLKCTFSSFAPVGDALTVTWNFRPLDGGPEQFVFYYHIDPFQPMSGRFKDRVSWDGNPERYDASILLWKLQFDDNGTYTCQVKNPPDVDGVIGEIRLSVVHTVRFS
modifications: bait human Fc-tagged dimer
Take B6: the binding score was 0.831.

B7: ADP120 (protein)
chain: MAGVGAGPLRAMGRQALLLLALCATGAQGLYFHIGETEKRCFIEEIPDETMVIGNYRTQMWDKQKEVFLPSTPGLGMHVEVKDPDGKVVLSRQYGSEGRFTFTSHTPGDHQICLHSNSTRMALFAGGKLRVHLDIQVGEHANNYPEIAAKDKLTELQLRARQLLDQVEQIQKEQDYQRYREERFRLTSESTNQR
modifications: bait human Fc-tagged dimer
For the molecule B7, the binding score was 0.957.

B8: ADP155 (protein)
chain: MAPARLFALLLFFVGGVAESIRETEVIDPQDLLEGRYFSGALPDDEDVVGPGQESDDFELSGSGDLDDLEDSMIGPEVVHPLVPLDNHIPERAGSGSQVPTEPKKLEENEVIPKRISPVEESEDVSNKVSMSSTVQGSNIFERTEV
modifications: bait human Fc-tagged dimer
Molecule B8 displayed a binding score of 0.582.

B9: ADP261 (protein)
chain: KWETKNCSVSSTNANDITQSLTGKGNDSEEEMRFQEVFMEHMSNMEKRIQHILDMEANLMDTEHFQNFSMTTDQRFNDILLQLSTLFSSVQGHGNAIDEISKSLISLNTTLLDLQLNIENLNGKIQENTFKQQEEISKLEERVYNVSAEIMAMKEEQVHLEQEIKGEVKVLNNITNDLRLKDWEHSQTLRNITLIQGPPGPPGEKGDRGPTGESGPRGFPGPIGPPGLKGDRGAIGFPGSRGLPGYAGRPGNSGPKGQKGEKGSGNTLTPFTKVRLVGGSGPHEGRVEILHSGQWGTICDDRWEVRVGQVVCRSLGYPGVQAVHKAAHFGQGTGPIWLNEVFCFGRESSIEECKIRQWGTRACSHSEDAGVTCTL
modifications: bait human Fc-tagged dimer
In turn, B9 yielded a binding score of 0.837.

B10: ADP317 (protein)
chain: MGSWALLWPPLLFTGLLVRPPGTMAQAQYCSVNKDIFEVEENTNVTEPLVDIHVPEGQEVTLGALSTPFAFRIQGNQLFLNVTPDYEEKSLLEAQLLCQSGGTLVTQLRVFVSVLDVNDNAPEFPFKTKEIRVEEDTKVNSTVIPETQLQAEDRDKDDILFYTLQEMTAGASDYFSLVSVNRPALRLDRPLDFYERPNMTFWLLVRDTPGENVEPSHTATATLVLNVVPADLRPPWFLPCTFSDGYVCIQAQYHGAVPTGHILPSPLVLRPGPIYAEDGDRGINQPIIYSIFRGNVNGTFIIHPDSGNLTVARSVPSPMTFLLLVKGQQADLARYSVTQVTVEAVAAAGSPPRFPQRLYRGTVARGAGAGVVVKDAAAPSQPLRIQAQDPEFSDLNSAITYRITNHSHFRMEGEVVLTTTTLAQAGAFYAEVEAHNTVTSGTATTVIEIQVSEQEPPSTDVPPSPEAGGTTGPWTSTTSEVPRPPEPSQGPSTTSSGGGTGPHPPSGTTLRPPTSSTPGGPPGAENSTSHQPATPGGDTAQTPKPGTSQPMPPGVGTSTSHQPATPSGGTAQTPEPGTSQPMPPSMGTSTSHQPATPGGGTAQTPEAGTSQPMPPGMGTSTSHQPTTPGGGTAQTPEPGTSQPMPLSKSTPSSGGGPSEDKRFSVVDMA
modifications: bait human Fc-tagged dimer
Take B10: the binding score was determined as 2.47.

B11: ADP354 (protein)
chain: MGPWSRSLSALLLLLQVSSWLCQEPEPCHPGFDAESYTFTVPRRHLERGRVLGRVNFEDCTGRQRTAYFSLDTRFKVGTDGVITVKRPLRFHNPQIHFLVYAWDSTYRKFSTKVTLNTVGHHHRPPPHQASVSGIQAELLTFPNSSPGLRRQKRDWVIPPISCPENEKGPFPKNLVQIKSNKDKEGKVFYSITGQGADTPPVGVFIIERETGWLKVTEPLDRERIATYTLFSHAVSSNGNAVEDPMEILITVTDQNDNKPEFTQEVFKGSVMEGALPGTSVMEVTATDADDDVNTYNAAIAYTILSQDPELPDKNMFTINRNTGVISVVTTGLDRESFPTYTLVVQAADLQGEGLSTTATAVITVTDTNDNPPIFNPTTYKGQVPENEANVVITTLKVTDADAPNTPAWEAVYTILNDDGGQFVVTTNPVNNDGILKTAKGLDFEAKQQYILHVAVTNVVPFEVSLTTSTATVTVDVLDVNEAPIFVPPEKRVEVSEDFGVGQEITSYTAQEPDTFMEQKITYRIWRDTANWLEINPDTGAISTRAELDREDFEHVKNSTYTALIIATDNGSPVATGTGTLLLILSDVNDNAPIPEPRTIFFCERNPKPQVINIIDADLPPNTSPFTAELTHGASANWTIQYNDPTQESIILKPKMALEVGDYKINLKLMDNQNKDQVTTLEVSVCDCEGAAGVCRKAQPVEAGLQIP
modifications: bait human Fc-tagged dimer
Molecule B11 registered a binding score of 0.796.
